Measurements as given in paper PMC3800186.

Target: HIV-1 YU2 gp120 S375A mutant (HIV-1 YU2)
Assay: SPR

KR21 biotinylated peptide triazole
IC50: 1.28 µM
